These results are taken from paper PMC11267001, “RhoG facilitates a conformational transition in the guanine nucleotide exchange factor complex DOCK5/ELMO1 to an open state” (The Journal of Biological Chemistry, 2024).

Test [1] has as its target human full-length ELMO1 (ELMO1^FL, residues 1-727) (human, UniProt Q92556 1-727). Nature of the test: cryo-EM structure; DOCK5^ΔC/ELMO1^FL/Rac1^G15A (0.9 μM) mixed with RhoG^Q61L (15 μM), cross-linked with 1 mM BS3, SEC; 20 mM HEPES-NaOH pH 8.0, 300 mM NaCl, 1 mM TCEP, 0.06% digitonin. To be noted: both partners purified.
In test [2] the target is C-terminal truncated DOCK5 (DOCK5^ΔC, residues 1-1642) (human, UniProt Q9H7D0 1-1642). Described as above. To be noted: both partners purified.

B1: constitutively active RhoG^Q61L mutant (GTPase domain, residues 1-184) (domain or fragment)
chain: not shown
In the case of B1, the binding result in test [1] and in test [2] was “binds” each time.
